Test results published in US20190218277A1 (Chugai, published 2019).
Numbering of substitutions follows the chain as printed.

B1: DG_3CH987-SG182/3CL119-SK1 (antibody, V domains shown)
VH: QVQLVQSGPDVEKPGASVKVSCKASGYTFTSYYIHWVRQAPGQGLEWMGVINPRGGSRRSAQKFQGRITMTRDTSTSTVYMELSSLRSEDTAVYYCARGGRALFYDSYTTPFDGGSWWFDPWGQGSLVTVSS
VL: DIQLTQSPSSLSASVGDRVTFTCQASQEIRKYLNWYQQKPGKAPKLLIYDASNLKTGVPSRFSGSGSGTDFTFTISSLQPEDVATYYCQQFDDLPITFGQGTRLQIKR
B2: DG_3CH1000-SG182/3CL668-SK1 (antibody, V domains shown)
VH: B1 VH with I34M
VL: B1 VL with F21I, E28D, F73L, D92E
B3: DG_3CH1046-SG182/3CL012-SK1 (antibody, V domains shown)
VH: B1 VH with P9A, D10E, E12K, I34M, I68V
VL: B1 VL with E28D, D92E
B4: DG_3CH1000-SG1095/3CL119-SK1 (antibody)
heavy: QVQLVQSGPDVEKPGASVKVSCKASGYTFTSYYMHWVRQAPGQGLEWMGVINPRGGSRRSAQKFQGRITMTRDTSTSTVYMELSSLRSEDTAVYYCARGGRALFYDSYTTPFDGGSWWFDPWGQGSLVTVSSASTKGPSVFPLAPSSKSTSGGTAALGCLVKDYFPEPVTVSWNSGALTSGVHTFPAVLQSSGLYSLSSVVTVPSSSLGTQTYICNVNHKPSNTKVDKRVEPKSCDKTHTCPPCPAPEAAGGPSVFLFPPKPKDTLMISRTPEVTCVVVDVSHEDPEVKFNWYVDGVEVHNAKTKPREEQYNSTYRVVSVLTVLHQDWLNGKEYKCKVSNAALPAPISKTISKAKGQPREPQVYTLPPSREEMTKNQVSLTCLVKGFYPSDIAVEWESNGQPENNYKTTPPVLDSDGSFFLYSKLTVDKSRWQQGNVFSCSVMHEALHNHYTQKSLSLSP
light: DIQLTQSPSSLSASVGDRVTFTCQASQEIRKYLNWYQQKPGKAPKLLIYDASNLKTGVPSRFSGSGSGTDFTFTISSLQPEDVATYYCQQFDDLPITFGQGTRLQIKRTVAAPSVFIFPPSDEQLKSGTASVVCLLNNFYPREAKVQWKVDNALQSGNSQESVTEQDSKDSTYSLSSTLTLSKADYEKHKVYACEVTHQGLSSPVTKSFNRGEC
B5: DG_3CH1000-SG182/3CL666-SK1 (antibody, V domains shown)
VH: B1 VH with I34M
VL: B1 VL with F21I, F73L
B6: DG_3CH1000-SG182/3CL633-SK1 (antibody, V domains shown)
VH: B1 VH with I34M
VL: B1 VL with F21I, E28D, F73L
B7: DG_3CH992-SG182/3CL666-SK1 (antibody, V domains shown)
VH: B1 VH with P9A, D10E, E12K, I68V
VL: B1 VL with F21I, F73L
B8: DG_3CH1047-SG1095/3CL119-SK1 (antibody)
heavy: B4 heavy with R101E
light: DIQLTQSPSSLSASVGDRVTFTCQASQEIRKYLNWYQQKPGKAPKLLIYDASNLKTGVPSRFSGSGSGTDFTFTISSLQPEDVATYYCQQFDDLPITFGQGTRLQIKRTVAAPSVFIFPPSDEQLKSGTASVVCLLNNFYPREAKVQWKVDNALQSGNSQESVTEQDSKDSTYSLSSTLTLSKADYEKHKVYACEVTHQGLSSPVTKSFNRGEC
B9: DG_3CH1000-SG1095/3CL012-SK1 (antibody, human IgG1, kappa, L234A L235A)
heavy: B4 heavy
light: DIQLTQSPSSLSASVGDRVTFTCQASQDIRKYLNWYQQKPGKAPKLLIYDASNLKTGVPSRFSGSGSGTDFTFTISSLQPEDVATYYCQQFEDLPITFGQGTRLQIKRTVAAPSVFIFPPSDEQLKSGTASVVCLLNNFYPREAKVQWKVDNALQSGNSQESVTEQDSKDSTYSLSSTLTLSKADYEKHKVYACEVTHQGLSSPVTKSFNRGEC
B10: DG_3CH989-SG182/3CL666-SK1 (antibody, V domains shown)
VH: B1 VH with P9A, D10E, E12K, Y32N, I68V
VL: B1 VL with F21I, F73L
B11: DG_3CH1047-SG182/3CL633-SK1 (antibody, V domains shown)
VH: B1 VH with I34M, R101E
VL: B1 VL with F21I, E28D, F73L
B12: DG_3CH1000-SG1095/3CL-SK1 (antibody, human IgG1, kappa, L234A L235A)
heavy: B4 heavy
light: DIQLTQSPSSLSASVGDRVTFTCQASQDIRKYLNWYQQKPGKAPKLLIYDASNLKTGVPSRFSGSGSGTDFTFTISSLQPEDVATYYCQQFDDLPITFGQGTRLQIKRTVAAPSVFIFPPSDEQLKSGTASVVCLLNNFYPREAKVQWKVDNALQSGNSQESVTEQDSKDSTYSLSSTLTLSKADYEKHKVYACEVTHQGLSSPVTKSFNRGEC
B13: DG_3CH992-SG182/3CL633-SK1 (antibody, V domains shown)
VH: B1 VH with P9A, D10E, E12K, I68V
VL: B1 VL with F21I, E28D, F73L
B14: DG_3CH1046-SG182/3CL-SK1 (antibody, V domains shown)
VH: B1 VH with P9A, D10E, E12K, I34M, I68V
VL: B1 VL with E28D
B15: DG_3CH1046-SG182/3CL119-SK1 (antibody, V domains shown)
VH: B1 VH with P9A, D10E, E12K, I34M, I68V
VL: B1 VL
B16: DG_3CH989-SG182/3CL-SK1 (antibody, V domains shown)
VH: B1 VH with P9A, D10E, E12K, Y32N, I68V
VL: B1 VL with E28D
B17: DG_3CH992-SG182/3CL012-SK1 (antibody, V domains shown)
VH: B1 VH with P9A, D10E, E12K, I68V
VL: B1 VL with E28D, D92E
B18: DG_3CH989-SG182/3CL668-SK1 (antibody, V domains shown)
VH: B1 VH with P9A, D10E, E12K, Y32N, I68V
VL: B1 VL with F21I, E28D, F73L, D92E
B19: DG_3CH1046-SG182/3CL633-SK1 (antibody, V domains shown)
VH: B1 VH with P9A, D10E, E12K, I34M, I68V
VL: B1 VL with F21I, E28D, F73L
B20: DG_3CH992-SG182/3CL119-SK1 (antibody, V domains shown)
VH: B1 VH with P9A, D10E, E12K, I68V
VL: B1 VL
B21: DG_3CH987-SG182/3CL-SK1 (antibody, V domains shown)
VH: B1 VH
VL: B1 VL with E28D
B22: DG_3CH1047-SG182/3CL666-SK1 (antibody, V domains shown)
VH: B1 VH with I34M, R101E
VL: B1 VL with F21I, F73L
B23: DG_3CH989-SG182/3CL012-SK1 (antibody, V domains shown)
VH: B1 VH with P9A, D10E, E12K, Y32N, I68V
VL: B1 VL with E28D, D92E
B24: DG_3CH989-SG182/3CL633-SK1 (antibody, V domains shown)
VH: B1 VH with P9A, D10E, E12K, Y32N, I68V
VL: B1 VL with F21I, E28D, F73L
B25: DG_3CH1047-SG1095/3CL012-SK1 (antibody, human IgG1, kappa, L234A L235A)
heavy: B4 heavy with R101E
light: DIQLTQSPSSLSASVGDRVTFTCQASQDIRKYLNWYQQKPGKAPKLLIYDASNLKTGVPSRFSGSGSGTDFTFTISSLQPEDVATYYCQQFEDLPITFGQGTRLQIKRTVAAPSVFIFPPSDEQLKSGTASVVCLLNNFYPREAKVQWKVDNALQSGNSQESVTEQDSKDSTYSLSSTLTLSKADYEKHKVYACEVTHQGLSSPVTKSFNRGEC
B26: DG_3CH989-SG182/3CL119-SK1 (antibody, V domains shown)
VH: B1 VH with P9A, D10E, E12K, Y32N, I68V
VL: B1 VL
B27: DG_3CH992-SG182/3CL-SK1 (antibody, V domains shown)
VH: B1 VH with P9A, D10E, E12K, I68V
VL: B1 VL with E28D

The binders below were run against T1, Recombinant soluble E protein (0.8E-His) from DENV-1 (DENV-1, UniProt P27909 281-675) (assay: not given).
T1 construct: also called DENV-1 E protein; DV1

Binder	Kd [pM]
B1	1530
B2	1680
B3	1920
B4	1920
B5	1660
B6	1770
B7	1390
B8	2230
B9	1830
B10	1500
B11	956
B12	1800
B13	1270
B14	1910
B15	1530
B16	1840
B17	1720
B18	1500
B19	1640
B20	1870
B21	1820
B22	982
B23	1520
B24	1540
B25	2210
B26	1530
B27	2020

Each binder was assayed against T2, Recombinant soluble E protein (0.8E-His) from DENV-2 (DENV-2, UniProt P14340 281-675) (assay: SPR, Biacore T200).
T2 construct: also called DENV-2 E protein; DV2

Binder	binding result
B1	binds
B2	binds
B3	binds
B4	binds
B5	binds
B6	binds
B7	binds
B8	binds
B9	binds
B10	binds
B11	binds
B12	binds
B13	binds
B14	binds
B15	binds
B16	binds
B17	binds
B18	binds
B19	binds
B20	binds
B21	binds
B22	binds
B23	binds
B24	binds
B25	binds
B26	binds
B27	binds

These binders were tested against T3, Recombinant soluble E protein (0.8E-His) from DENV-4 (DENV-4, UniProt P09866 280-674) (assay: SPR, Biacore T200).
T3 construct: also called DENV-4 E protein; DV4

Binder	binding result
B1	binds
B2	binds
B3	binds
B4	binds
B5	binds
B6	binds
B7	binds
B8	binds
B9	binds
B10	binds
B11	binds
B12	binds
B13	binds
B14	binds
B15	binds
B16	binds
B17	binds
B18	binds
B19	binds
B20	binds
B21	binds
B22	binds
B23	binds
B24	binds
B25	binds
B26	binds
B27	binds

What follows are binders tested against T4, Recombinant soluble E protein (0.8E-His) from DENV-3 (DENV-3, UniProt P27915 281-673) (assay: not given).
T4 construct: also called DENV-3 E protein; DV3

Binder	Kd [pM]
B1	0.715
B2	0.8
B3	0.145
B4	0.0428
B5	2.5
B6	4.25
B7	0.802
B8	3.79
B9	0.959
B10	1.96
B11	0.437
B12	16.8
B13	2.95
B14	0.213
B15	2.73
B16	0.448
B17	1.07
B18	3.03
B19	0.201
B20	0.515
B21	0.986
B22	42
B23	0.0967
B24	2.37
B25	3.17
B26	6.83
B27	4.03
